Reference: the supplement of paper PMC9170038

System: MS2 coat protein
Assay: apparent KD of MS2 coat protein; higher = weaker reporter binding
Conditions: Eterna round: R107
How it was run: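 Apparent KD per design is the median of normalised cluster binding-curve fits. Designed RNA switches transcribed on-chip from Illumina sequencing clusters were titrated with SNAP-549-labelled MS2 coat protein in twofold steps from 0.7 or 1.5 nM to 3 µM, with 0.8–1.5 h down to 10–20 min per step. Buffer: 100 mM Tris-HCl pH 7.5, 80 mM KCl, 4 mM MgCl2, without or with constant ligand.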

[1] = input ligand: theophylline 20 uM
[2] = input ligand: theophylline 2 mM
[3] = input ligand: tryptophan 2.4 mM

Sequence | apparent KD of MS2 coat protein (input ligand: arginine 13.2 mM) [nM] | apparent KD of MS2 coat protein (input ligand: none) [nM] | apparent KD of MS2 coat protein [1] [nM] | apparent KD of MS2 coat protein [2] [nM] | apparent KD of MS2 coat protein [3] [nM]
UCGCUCGCCGAAAGGCGAGCGAGUUGCGAUACCAGCCCGGAAACGGGCCCUUGGCAGCGCACAUGAGGAUCACCCAUGUCAUGUU [#1 Exclusion - Theophylline A Attempt #3 (HarryS)] | 13.4 | 19.4 | 25.3 | 58.7 | 31.3
UCGGACAUGAGGAUCACCCAUGUAAAUCCUCGAGGACCGGUACGGCCGCCACUCGAACGAGUGGCGCGCGAGUGCGCACUCGCGC [aFa] | 22.2 | 33.2 | 57.9 | 35.8 | 26.6
UCGGGCAUGGCGGCCGCCACUGGUUGGCGUGCGGAUGAGGGAACAUGAGGAUCACCCAUGUUGGUUAGGACCGGGCUUGCGUCGU [knkmullin] | 11.8 | 16.5 | 18 | 15.2 | 13.4
UCGUGUAUAACGGAUACCAGUGAGAAGGAUACAUGAGGAUCACCCAUGUGAGUUGAUCCACACCCUUGGCAGCUGUAUAUAUCUA [alamullin] | 103 | – | 468 | – | 290
UCGUGUAUAUCGGAUACCAGUGAGAAGGAUACAUGAGGAUCACCCAUGUGAGUUGAUGUACACCCUUGGCAGCUGUAUAUAUCUA [.plullin] | 36 | – | 62.7 | – | 47.9
UCGUUUGAGGCGGCCGCCACUGGUCUCAUGGUCAACAUGAGGAUCACCCAUGUAUCUUUGCUAAGCAGGACCGGGCCUCGAGCGA [#19 Exclusion Tryptophan B] | 43.5 | – | 87.4 | 87.5 | –
UGAAAGUAGGGAAGGAGCGCUACAACAUGAGGAUCACCCAUGUUAUGAGGAUCACCCGUGUGGCAGGUAGGUCGCCCAAAACAUG [#13 Same State - Arginine B] | 40.6 | 43.9 | 46.7 | 35.6 | 31.9
UGACAGAUAACCGCUGGUGCUCUCGAGUUGCGAGGACCGGUACGGCCGCCACUCGACAACAUGAGGAUCACCCAUGUUGCGGGUC [Lareara] | 30.7 | – | 108 | 156 | –
UGACAUUGCUCAGAUACCAGACAUGAGGAUCACCCAUGUGCCAAACGUACAAUAAUAAAUGUCCCUUGGCAGCUGAGCAAUGUCU [TheoBX 14 #MS2Left #Theo2] | 13.4 | – | 17.3 | – | 11.6
UGACAUUGCUGCGAUACCAGACAUGAGGAUCACCCAUGUACCAAGGUACGAAAAUAACAUGUCCCUUGGCAGCGCAGCAAUGUCU [MAT - Exclusion Theophlline B - Mod of Eli - D4] | 12.6 | – | 25.7 | – | 12.1
UGACGAGGCCUGGAUACCAGCGACAUGAGGAUCACCCAUGUAUGAGGAUCAGCCAUGUUAUGCCCUUGGCAGCCACGAAGGUCAG [WQQMULLIN] | 21.6 | 25.4 | 38.2 | 220 | 22.9
UGAGUUAGACAAAAGUCUAGCUCUGGUGAAGGAGCGUCCGAAAGGACAGGUAGGUCGCACCACCUGAGGAUCACCCGGGUUCCUA [ArgAS 13 #OpenEnded #AlternativeMS2] | 360 | 167 | 544 | 991 | 115
UGAUACCAGUCGGCCGCCACUACAUGAGGAUCACCCAUGUAUGGGUCAAUGCUAGAUACUAGCAGUAGGACCGGGACUGGUAUCU | 11.4 | – | 14.8 | 13.2 | –
UGAUCCUACAGAGAUACCAGUGCCACUGAGUGACCAGACACAUGAGGAUCACCCAUGUAACACCCUUGGCAGCUCAACUAGAGGG [Same State Theophylline B GF18] | 16.8 | – | 22.3 | – | 19.7
UGCAUGAUCUGAAGGAGCGUGUAUGAUGAUAACAUGAGGAUCACCCAUGUCGAGACGGUAACACAGGUAGGUCGCAGAUCAUGCU [Arg B SS t4] | 21.4 | 23.2 | 31.7 | 28.3 | 24.7
UGGCGAGAAGGAAGGAGCGUCAGCUGAGUCACAUGAGGAUCACCCAUGUAGGACAUGGUGUGACAGGUAGGUCGCCUUCUGCCCU [SS-ArgB18] | 16.9 | 14.6 | 25.7 | 22.5 | 13
